For one substance, Net GTP gamma S-stimulated forskolin binding results are on record in patent US20020103147A1.

This test has as its target transgene murine adenylylcyclase isoform VI (ACVI) with HA-tag, from the truncated construct of Example 5-2 (murine) (UniProt Q01341). Description: cell-based or functional assay.

Chain of transgene murine adenylylcyclase isoform VI (ACVI) with HA-tag, from the truncated construct of Example 5-2 (murine) (Q01341 whole entry, the tested form may be a part, canonical isoform): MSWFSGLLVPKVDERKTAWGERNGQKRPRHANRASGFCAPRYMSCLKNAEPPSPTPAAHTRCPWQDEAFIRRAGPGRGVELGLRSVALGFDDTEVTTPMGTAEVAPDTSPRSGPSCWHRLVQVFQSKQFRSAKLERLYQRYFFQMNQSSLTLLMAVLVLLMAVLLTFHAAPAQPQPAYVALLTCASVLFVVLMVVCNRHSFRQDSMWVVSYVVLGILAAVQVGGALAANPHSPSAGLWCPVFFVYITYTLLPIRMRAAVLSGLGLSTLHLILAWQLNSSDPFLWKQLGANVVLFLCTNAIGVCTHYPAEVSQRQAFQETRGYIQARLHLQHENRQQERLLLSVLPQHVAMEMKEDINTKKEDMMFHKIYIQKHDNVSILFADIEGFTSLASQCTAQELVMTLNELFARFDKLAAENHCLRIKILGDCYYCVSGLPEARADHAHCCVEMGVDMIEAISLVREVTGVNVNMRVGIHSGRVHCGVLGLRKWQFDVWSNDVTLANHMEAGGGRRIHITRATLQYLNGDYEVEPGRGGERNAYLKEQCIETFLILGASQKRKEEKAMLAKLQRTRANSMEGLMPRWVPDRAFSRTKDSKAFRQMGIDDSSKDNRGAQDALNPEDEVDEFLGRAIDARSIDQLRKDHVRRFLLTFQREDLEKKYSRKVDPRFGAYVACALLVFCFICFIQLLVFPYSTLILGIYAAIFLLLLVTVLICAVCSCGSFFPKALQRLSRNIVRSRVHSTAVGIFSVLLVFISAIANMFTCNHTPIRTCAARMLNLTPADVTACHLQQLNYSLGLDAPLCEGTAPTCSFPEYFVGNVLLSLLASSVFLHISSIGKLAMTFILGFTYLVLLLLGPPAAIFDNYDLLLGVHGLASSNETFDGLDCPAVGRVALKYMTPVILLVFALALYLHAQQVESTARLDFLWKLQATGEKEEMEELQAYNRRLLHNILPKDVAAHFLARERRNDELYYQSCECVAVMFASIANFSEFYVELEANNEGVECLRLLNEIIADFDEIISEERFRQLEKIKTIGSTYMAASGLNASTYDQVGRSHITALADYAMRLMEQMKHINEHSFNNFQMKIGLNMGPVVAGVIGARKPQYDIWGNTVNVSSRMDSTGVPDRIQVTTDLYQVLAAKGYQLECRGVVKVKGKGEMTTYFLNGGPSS

For the substance “Gs (stimulatory GTP-binding protein) of neonatal rat cardiac myocytes (from UniProt P63095 2-394)”, the Net GTP gamma S-stimulated forskolin binding was determined as 447 cpm.
